# Results from FireProtDB.
# Values joined by “and” are separate entries in the source; they are usually repeats but may differ in a detail not shown here. Identical values can stand only once.
# B1: Met repressor wild type, P0A8U6 (protein)
# chain: MAEWSGEYISPYAEHGKKSEQVKKITVSIPLKVLKILTDERTRRQVNNLRHATNSELLCEAFLHAFTGQPLPDDADLRKERSDEIPEAAKEIMREMGINPETWEY
# B2: L-arabinose-binding periplasmic protein wild type, P02924 (protein)
# chain: MHKFTKALAAIGLAAVMSQSAMAENLKLGFLVKQPEEPWFQTEWKFADKAGKDLGFEVIKIAVPDGEKTLNAIDSLAASGAKGFVICTPDPKLGSAIVAKARGYDMKVIAVDDQFVNAKGKPMDTVPLVMMAATKIGERQGQELYKEMQKRGWDVKESAVMAITANELDTARRRTTGSMDALKAAGFPEKQIYQVPTKSNDIPGAFDAANSMLVQHPEVKHWLIVGMNDSTVLGGVRATEGQGFKAADIIGIGINGVDAVSELSKAQATGFYGSLLPSPDVHGYKSSEMLYNWVAKDVEPPKFTEVTDVVLITRDNFKEELEKKGLGGK
# B3: Tetracycline repressor protein class D wild type, P0ACT4 (protein)
# chain: MARLNRESVIDAALELLNETGIDGLTTRKLAQKLGIEQPTLYWHVKNKRALLDALAVEILARHHDYSLPAAGESWQSFLRNNAMSFRRALLRYRDGAKVHLGTRPDEKQYDTVETQLRFMTENGFSLRDGLYAISAVSHFTLGAVLEQQEHTAALTDRPAAPDENLPPLLREALQIMDSDDGEQAFLHGLESLIRGFEVQLTALLQIVGGDKLIIPFC
# B4: PTS system mannose-specific EIIAB component wild type, P69797 (protein)
# chain: MTIAIVIGTHGWAAEQLLKTAEMLLGEQENVGWIDFVPGENAETLIEKYNAQLAKLDTTKGVLFLVDTWGGSPFNAASRIVVDKEHYEVIAGVNIPMLVETLMARDDDPSFDELVALAVETGREGVKALKAKPVEKAAPAPAAAAPKAAPTPAKPMGPNDYMVIGLARIDDRLIHGQVATRWTKETNVSRIIVVSDEVAADTVRKTLLTQVAPPGVTAHVVDVAKMIRVYNNPKYAGERVMLLFTNPTDVERLVEGGVKITSVNVGGMAFRQGKTQVNNAVSVDEKDIEAFKKLNARGIELEVRKVSTDPKLKMMDLISKIDK
# B5: Ribonuclease HI wild type, P0A7Y4 (protein)
# chain: MLKQVEIFTDGSCLGNPGPGGYGAILRYRGREKTFSAGYTRTTNNRMELMAAIVALEALKEHCEVILSTDSQYVRQGITQWIHNWKKRGWKTADKKPVKNVDLWQRLDAALGQHQIKWEWVKGHAGHPENERCDELARAAAMNPTLEDTGYQVEV
# B6: Regulatory protein cro wild type, P03040 (protein)
# chain: MEQRITLKDYAMRFGQTKTAKDLGVYQSAINKAIHAGRKIFLTINADGSVYAEEVKPFPSNKKTTA
# B7: 3-isopropylmalate dehydrogenase wild type, P30125 (protein)
# chain: MSKNYHIAVLPGDGIGPEVMTQALKVLDAVRNRFAMRITTSHYDVGGAAIDNHGQPLPPATVEGCEQADAVLFGSVGGPKWEHLPPDQQPERGALLPLRKHFKLFSNLRPAKLYQGLEAFCPLRADIAANGFDILCVRELTGGIYFGQPKGREGSGQYEKAFDTEVYHRFEIERIARIAFESARKRRHKVTSIDKANVLQSSILWREIVNEIATEYPDVELAHMYIDNATMQLIKDPSQFDVLLCSNLFGDILSDECAMITGSMGMLPSASLNEQGFGLYEPAGGSAPDIAGKNIANPIAQILSLALLLRYSLDADDAACAIERAINRALEEGIRTGDLARGAAAVSTDEMGDIIARYVAEGV
# B8: Peptidyl-prolyl cis-trans isomerase B wild type, P23869 (protein)
# chain: MVTFHTNHGDIVIKTFDDKAPETVKNFLDYCREGFYNNTIFHRVINGFMIQGGGFEPGMKQKATKEPIKNEANNGLKNTRGTLAMARTQAPHSATAQFFINVVDNDFLNFSGESLQGWGYCVFAEVVDGMDVVDKIKGVATGRSGMHQDVPKEDVIIESVTVSE
# Details: whole UniProt chain shown
# [1] = Escherichia coli (strain K12), pH 7, 25 °C, Thermal, DSC, Potassium phosphate 25 mM, KCl 100 mM, reversible: yes
# [2] = Escherichia coli (strain K12), pH 7, Thermal, DSC, Potassium phosphate 25 mM, KCl 100 mM, reversible: yes
# [3] = Escherichia coli (strain K12), pH 7.4, Thermal, DSC, phosphate 5 mM, reversible: yes
# [4] = Escherichia coli (strain K12), pH 3, Thermal, CD, glycine-HCl 10 mM, NaCl 0.1 M, reversible: yes
# [5] = Escherichia coli (strain K12), pH 3, Thermal, CD, glycine-HCl 10 mM, reversible: yes
# [6] = Escherichia coli (strain K12), pH 5.5, Thermal, CD, Sodium acetate 5 mM, KCl 50 mM, reversible: no
# [7] = Escherichia coli (strain K12), pH 5.5, Thermal, CD, Sodium acetate 20 mM, reversible: yes
# [8] = Escherichia coli (strain K12), pH 8, 25 °C, GdnHCl, CD, Potassium phosphate 20 mM, KCl 50 mM, reversible: yes
# [9] = Escherichia coli (strain K12), pH 8, 25 °C, GdnHCl, CD, Potassium phosphate 50 mM, KCl 50 mM, reversible: yes
# [10] = Escherichia coli (strain K12), pH 8, 25 °C, Urea, CD, Potassium phosphate 20 mM, KCl 50 mM, reversible: yes
# [11] = Escherichia coli (strain K12), pH 7, 27 °C, Urea, Fluorescence, Potassium phosphate 50 mM, transition: 3, reversible: yes
protein,measurement,setting,value
B1,heat capacity change of unfolding,[1],2.13 kcal/mol/K
same,unfolding free energy,[1],7.77 kcal/mol
same,Tm,[2],53.2 °C
same,heat capacity change of unfolding,[2],2.13 kcal/mol/K
same,unfolding enthalpy (calorimetric),[2],121 kcal/mol
same,unfolding enthalpy (van 't Hoff),[2],131 kcal/mol
B2,Tm,[3],53.6 °C
same,heat capacity change of unfolding,[3],3.16 kcal/mol/K
same,unfolding enthalpy (calorimetric),[3],152 kcal/mol
B3,denaturant midpoint (higher = more stable),"Escherichia coli, pH 7.5, 22 °C, Urea, CD, Tris-HCl 50 mM, NaCl 150 mM, reversible: yes(96%)",4.7 M
B4,unfolding free energy,"Escherichia coli (strain K12), pH 7.4, 22 °C, GdnHCl, CD, Sodium phosphate 20 mM, reversible: yes",6.5 kcal/mol
same,unfolding enthalpy (van 't Hoff),"Escherichia coli (strain K12), pH 7.4, Thermal, CD, Sodium phosphate 20 mM, reversible: yes",135 kcal/mol
B5,Tm,"Escherichia coli (strain K12), pH 3, Thermal, CD, Gly-HCl buffer 10 mM, NaCl 0.1 M, reversible: yes",49.8 °C
same,Tm,[4],50.1 °C
same,unfolding enthalpy (van 't Hoff),[4],113 kcal/mol
same,Tm,[5],49.8 °C
same,unfolding enthalpy (van 't Hoff),[5],98.1 kcal/mol
same,Tm,[6],66 °C
same,heat capacity change of unfolding,[6],2.7 kcal/mol/K
same,unfolding enthalpy (van 't Hoff),[6],120 kcal/mol
same,Tm,[7],52 °C
same,unfolding enthalpy (van 't Hoff),[7],89 kcal/mol
same,Tm,"Escherichia coli (strain K12), pH 5.5, Thermal, CD, sodium acetate 20 mM, NaCl 0.1 M, reversible: yes",52 °C
same,denaturant midpoint (higher = more stable),[8],1.6 M
same,unfolding free energy,[8],7.2 kcal/mol
same,denaturant midpoint (higher = more stable),[9],1.18 M
same,unfolding free energy,[9],3.95 kcal/mol
same,denaturant midpoint (higher = more stable),[10],3.84 M
same,unfolding free energy,[10],7.4 kcal/mol
same,Tm,"Escherichia coli (strain K12), pH 8, Thermal, CD, Potassium phosphate 20 mM, KCl 50 mM, reversible: yes",55 °C
B6,Tm,"Escherichia phage lambda, pH 3, Thermal, CD, Potassium phosphate 10 mM, KCl 0.1 M, reversible: yes",40 °C
same,Tm,"Escherichia phage lambda, pH 7, Thermal, CD, Potassium phosphate 10 mM, KCl 0.1 M, reversible: yes",39.5 °C
B7,denaturant m value,[11],5.56 kcal/mol/M and 2.22 kcal/mol/M
same,unfolding free energy,[11],14.7 kcal/mol and 17.7 kcal/mol
same,unfolding enthalpy (van 't Hoff),"Escherichia coli (strain K12), pH 7, Thermal, Fluorescence, potassium phosphate 50 mM, DTT 1 mM, transition: 3, reversible: yes",15.4 kcal/mol and 17.8 kcal/mol
B8,unfolding free energy,"Escherichia coli (strain K12), pH 8, 15 °C, NaCl, Fluorescence, Tris-HCl 0.1 M, NaCl 2.0 M, reversible: yes",2.51 kcal/mol
